Data as given in patent US9428586B2, “Heparanase splice variant” (COMPUGEN LTD, priority 2010, dated 2016).

Tests used:
HUVEC = assay: Tube-like structure formation on Matrigel; format: cell-based, human; details: T5 lenti virus infected HUVEC vs Vo, 24 h and 48 h
Protocol: FIG. 9. A. Tube-like structure formation. Human umbilical vein endothelial cells (HUVEC) were infected with control (Vo) or T5 lenti virus constructs and plated on reconstituted basement membrane (Matrigel). Spontaneous organization into tube-like structures was examined after 24 h (upper panels) and 48 h (lower panels). Note network stabilization upon T5 over expression at 48 h. B Immunofluorescent staining of control (Vo), heparanase-, and T5-infected HUVEC cells applying anti-heparanase 733 antibody (green, left panels). Merged images with nuclear staining (Topro, red) are shown in the right panels. Note T5 localization to endocytic vesicles.

CAG myeloma cells = assay: Cell proliferation by BrdU incorporation, CAG myeloma cells; format: cell-based, human; details: infected CAG cells, serum-free 20 h, BrdU 2 h; control Vo 24±3%
Protocol: FIG. 4. T5 augments cell proliferation. A. BrdU incorporation. Morphology of control (Con), heparanase (Hepa)- and T5-infected CAG myeloma cell cultures is shown in the upper panels. […] Sub-confluent cultures of control (Vo), heparanase (Hepa)- and T5-infected CAG cells were grown in serum-free medium for 20 h followed by incubation with BrdU (1:1000) for 2 h. Cells were then fixed and immunostained with anti BrdU monoclonal antibody. Positively stained, red-brown nuclei were counted vs. blue, hematoxilin counter-stained nuclei. At least 1000 cells were counted for each cell type and the percentage of positively stained cells is noted in each panel. Fold increase in BrdU incorporation is shown graphically on the right panel. Gene silencing. 293 cells were transfected with anti-GFP (si-GFP), anti-heparanase (si-Hepa) or anti-T5 siRNA oligonucleotides and BrdU incorporation was evaluated as above except that cells were kept in serum-containing medium (lower panels). Note 2-fold decrease in BrdU incorporation following heparanase or T5 gene silencing (lower right panel). B. Colony formation in soft agar. […]
Cell proliferation was analyzed by BrdU incorporation using cell proliferation labeling reagent (1:1000, GE Healthcare), as described in Zetser, A., et al (2003 Cancer Res 63, 7733-7741). At least 1000 cells were counted for each cell type.

Src = Src phosphorylation (immunoblot, densitometry) in 293 cells; format: cell-based, human; details: over expressing 293 cells, serum-free
Protocol: FIG. 3. T5 augments Src phosphorylation. A. Over expression. CAG myeloma (left) and 293 (right) cells infected with heparanase (Hepa), T5, or control empty vector (Vo) were grown in the absence (-) or presence (+) of heparin (50 μg/ml) under serum-free conditions. Total cell lysates were subjected to immunoblotting applying anti-heparanase 1453 (upper and second panels), anti-phospho-Src (p-Src, third panels), anti-Src (fourth panels) anti-phospho-Erk (p-Erk, fifth panels), and anti-Erk2 (sixth panels) antibodies. Src phosphorylation index was calculated by densitometry analysis of phosphorylated Src levels divided by the total Src values. […] B. Gene silencing. Parental 293 cells were transfected with anti-heparanase, anti-T5, or control siRNAs. Total RNA was extracted and RT-PCR analysis was performed applying T5 (upper panel), heparanase (Hepa, second panel) and GAPDH (third panel) specific primers. Corresponding cell lysates were subjected to immunoblotting applying phospho-Src (p-Src, fourth panel), Src (fifth panel), phospho-Erk (p-Erk, sixth panel) and Erk2 (seventh panel) antibodies. Src phosphorylation index was calculated as above and is shown graphically in the lower panel. Note decreased Src phosphorylation levels upon T5 down regulation. […]

Binding to heparin beads = details: lysates of over expressing 293 cells, heparin beads
From the text: FIG. 7. […] A. Cell lysates. […] B,C. Peptide analysis. […] C. Enzymatic activity.

[1] = Heparanase activity assay of transfected 293 cell lysates on 35S-labelled ECM; format: biochemical, human
From the text: FIG. 2. Cloning and expression of T5. A. RT-PCR analysis. Total RNA was extracted from the indicated cell line and subjected to RT-PCR analysis applying T5 (upper panel), heparanase (second panel) and GAPDH (third panel) specific primers, specified in the ‘Materials and Methods’ section. B. T5 transfection. […] Control cells were transfected with an empty vector (Vo). Cell lysates (left) and cell conditioned medium (right) were blotted with anti-heparanase 1453 antibody. C. Cellular localization. Stably transfected 293 cells were triple stained for Myc-tag (T5; middle, red), the ER marker calnexin (ER, left, green), and merged with cell nuclei labeled with TO-PRO (right, blue). Cells were similarly stained with anti-Myc-tag (T5; middle, red), the Golgi marker wheat germ agglutinin-FITC (Golgi, left, green) and merged with cell nuclei labeled with TO-PRO (right, blue). […] D. Enzymatic activity. 293 cells transfected with heparanase (Hepa), T5 or control empty vector (Vo) were subjected to three freeze-thaw cycles and applied onto culture dishes coated with ^35S-labelled ECM. Release of sulfate-labeled material eluted in fractions 15-30 was evaluated as measure of heparanase activity, as described in ‘Materials and Methods’. […]

B1: T5: novel splice variant of heparanase; truncated, enzymatically inactive 169 amino acid protein (protein, listed as Homo sapiens)
chain: MLLRSKPALPPPLMLLLLGPLGPLSPGALPRPAQAQDVVDLDFFTQEPLHLVSPSFLSVTIDANLATDPRFLILLGSPKLRTLARGLSPAYLRFGGTKTDFLIFDPKKESTFEERSYWQSQVNQDICKYGSIPPDVEEKLRLEWPYQEQLLLREHYQKKFKNSTYSSKK
In the case of B1, the “endothelial cell organization (tube formation) on Matrigel” value (HUVEC) is reported as “maintained for a relatively long period of time”, the “BrdU incorporation (positively stained cells)” value (CAG myeloma cells) is reported as 52±5% and the “Src phosphorylation enhancement vs control Vo cells” value (Src) is reported as ~4 fold. For the same molecule, the “heparin binding of protein in cell lysates” value (Binding to heparin beads) was “failed to bind heparin”, the “effect on the activity of endogenous heparanase” value ([1]; T5 vs. Vo transfected 293 cells) was “did not seem to significantly impinge on the activity of endogenous heparanase” and the heparanase enzymatic activity ([1]; lysates of stably transfected 293 cells, T5 vs. Hepa) was “lacks heparanase enzymatic activity”.
